How the values were obtained:
[1] = molecular target: T1, Human HER3-His (Sino Biological, 10201-H08H) (human, UniProt P21860 20-643); assay: ELISA, coated His-tagged antigen
T1 construct: Specificity control; also called Human HERS-His

[2] = molecular target: T2, Cyno TACI-His (Sino Biological, 90976-C08H) (cynomolgus macaque, UniProt G7PTR7 1-165); assay: BLI, IgG on HFC tip, His-tagged cynomolgus TACI 300-37.5 nM
T2 construct: Bought protein; also called cynomolgous macaque TACI; CyTACI
T2 sequence: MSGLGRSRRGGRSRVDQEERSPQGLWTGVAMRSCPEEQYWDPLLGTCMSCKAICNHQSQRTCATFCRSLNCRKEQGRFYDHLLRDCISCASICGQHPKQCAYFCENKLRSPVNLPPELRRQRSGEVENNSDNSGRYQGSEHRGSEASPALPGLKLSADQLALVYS

[3] = molecular target: T3, recombinant his-tagged human TACI (Sinobiological cat #11937-H08H) (human, UniProt O14836 1-165); assay: BLI, IgG on HFC tip, His-tagged human TACI 300-37.5 nM
T3 construct: Bought protein; also called Human TACI-His; huTACI; not shown: His tag
T3 sequence: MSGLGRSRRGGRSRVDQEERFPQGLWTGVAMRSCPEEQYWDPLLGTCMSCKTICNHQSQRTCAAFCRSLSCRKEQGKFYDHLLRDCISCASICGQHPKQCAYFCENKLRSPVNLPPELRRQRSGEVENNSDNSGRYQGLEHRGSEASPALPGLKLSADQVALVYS

[4] = molecular target: T3, recombinant his-tagged human TACI …; assay: ELISA, coated Human TACI-His
[5] = molecular target: T4, His-tagged human BCMA (Acro Biosystems, Cat. #BCA-H522y) (human, UniProt Q02223 1-54); assay: BLI, IgG on HFC tip, His-tagged human BCMA 300-37.5 nM
T4 construct: also called huBCMA; P1; not shown: His tag
T4 sequence: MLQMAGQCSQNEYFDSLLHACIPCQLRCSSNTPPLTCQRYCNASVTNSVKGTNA

[6] = molecular target: T5, Human BCMA-His (Sino Biological, 10620-H08H) (human, UniProt Q02223 1-54); assay: ELISA, coated Human BCMA-His
T5 construct: not shown: His tag
T5 sequence: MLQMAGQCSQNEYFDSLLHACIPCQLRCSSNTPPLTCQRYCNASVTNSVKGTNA

[7] = molecular target: T6, human BCMA expressed on cells (human, UniProt Q02223 1-184); assay: flow cytometry, fixed RPMI 8226 cells (BCMA+, TACI+: the cells carry both targets)
T6 construct: the cell line is named under assay; also called wildtype human BCMA
T6 sequence: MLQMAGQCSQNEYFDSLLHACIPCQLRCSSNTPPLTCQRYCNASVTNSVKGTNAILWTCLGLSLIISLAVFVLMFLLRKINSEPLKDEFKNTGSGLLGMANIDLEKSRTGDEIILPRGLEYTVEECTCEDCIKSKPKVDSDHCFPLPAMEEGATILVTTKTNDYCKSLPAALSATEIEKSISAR

[8] = molecular target: T7, His-tagged cynomolgous macaque BCMA (Acro Biosystems, BCA-C52H7) (cynomolgus macaque, UniProt Q02223 1-54 (human entry)); assay: ELISA, coated Cyno BCMA-His
T7 construct: Bought protein; also called cyno BCMA; CyBCMA; not shown: His tag

[9] = molecular target: T6, human BCMA expressed on cells; assay: flow cytometry, H929 cells (BCMA+)
[10] = molecular target: T2, Cyno TACI-His (Sino Biological, …); assay: ELISA, coated Cyno TACI-His
[11] = molecular target: T7, His-tagged cynomolgous macaque BCMA …; assay: BLI, IgG on HFC tip, His-tagged cynomolgus BCMA 300-37.5 nM
[12] = molecular target: T4, His-tagged human BCMA (Acro Biosystems, …); assay: BLI (Gator), antibody loaded on HFC biosensor, His-tagged antigen as analyte
[13] = molecular target: T7, His-tagged cynomolgous macaque BCMA …; assay: as above
[14] = molecular target: T3, recombinant his-tagged human TACI …; assay: as above
[15] = molecular target: T4, His-tagged human BCMA (Acro Biosystems, …); assay: ELISA, IgG purified from hybridoma supernatant, coated His-tagged antigen
[16] = molecular target: T8, His-tagged mouse BCMA (Acro Biosystems, BCA-M52H3) (mouse, UniProt O88472 1-49); assay: as above
T8 construct: Bought protein; not shown: His tag
T8 chain: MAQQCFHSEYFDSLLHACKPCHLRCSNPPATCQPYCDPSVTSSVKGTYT

[17] = molecular target: T6, human BCMA expressed on cells; assay: flow cytometry, hybridoma supernatant, HEK293T cells stably expressing human BCMA
[18] = molecular target: T4, His-tagged human BCMA (Acro Biosystems, …); assay: ELISA, hybridoma supernatant, coated His-tagged antigen
[19] = molecular target: T7, His-tagged cynomolgous macaque BCMA …; assay: as above
[20] = molecular target: T8, His-tagged mouse BCMA (Acro Biosystems, …); assay: as above

B1: 1C8-610 hIgG1 (antibody, V domains shown)
VH: QVQLVQSGAEVKKPGASVKVSCKASGYTFTNYVMFWVKQKPGQGLEWMGYITPYNDGTKYAQKFQGKVTMTSDKSTSTVYMELSSLTSEDTAVYYCARYDYEGSFDYWGQGTLVTVSS
VL: DIQMTQSPSSLSASVGDRVTITCRASQDISNYLNWYQQKPGKAPKLLMRYTSRFHSGVPSRFSGSGSGTDFTLTISSLEQEDFATYYCQQGNTFPPTSGGGTKVEIKR
notes: also called [93]; hu1C8-610
- binding result [1]: no binding (tested: 3 µg/ml (highest concentration))
- Kd [2]: 1250 pM
- koff [2]: 0.000839 s⁻¹
- kon [2]: 673000 M⁻¹ s⁻¹
- Kd [3]: 20800 pM
- koff [3]: 0.0205 s⁻¹
- kon [3]: 988000 M⁻¹ s⁻¹
- EC50 [4]: 10 pM
- Kd [5]: 650 pM
- koff [5]: 0.00307 s⁻¹
- kon [5]: 4.71e+06 M⁻¹ s⁻¹
- EC50 [6]: 10 pM
- EC50 [7]: 134 pM
- EC50 [8]: 89 pM
- EC50 [9]: 67.7 pM
- EC50 [10]: 7 pM
- Kd [11]: 22800 pM
- koff [11]: 0.0291 s⁻¹
- kon [11]: 1.28e+06 M⁻¹ s⁻¹

B2: 1C8-25 hIgG1 (antibody, V domains shown)
VH: QVQLVQSGAEVKKPGASVKVSCKASGYTFTNYVMHWVRQAPGQRLEWMGYILPYNDGTKYSQKFQGRVTITRDTSASTAYMELSSLRSEDTAVYYCARYDWEGSFDYWGQGTTVTVSS
VL: DIQMTQSPSSLSASVGDRVTITCRASQDIGNYLNWYQQKPGKAVKLLMRYTSRLHSGVPSRFSGSGSGTDFTLTISSLQPEDFATYYCQQGFTFPPTFGGGTKLEIKR
notes: also called [95]
- binding result [12]: binds
- binding result [13]: binds
- binding result [14]: binds

B3: 1C8-27 hIgG1 (antibody, V domains shown)
VH: QVQLVQSGAEVKKPGASVKVSCKASGYTFTNYVMHWVRQAPGQRLEWMGYILPYNDGTKYSQKFQGRVTITRDTSASTAYMELSSLRSEDTAVYYCARYDWEGSFDYWGQGTTVTVSS
VL: DIQMTQSPSSLSASVGDRVTITCAASQDISNYLNWYQQKPGKAVKLLMRYTSRLHSGVPSRFSGSGSGTDFTLTISSLQPEDFATYYCQQGNRFPPTFGGGTKLEIKR
notes: also called [96]
- binding result [12]: binds
- binding result [13]: binds
- binding result [14]: binds

B4: 539-SP7-F4 (antibody produced by the hybridoma) (antibody, V domains shown)
VH: EVQLQQSGPELVKPGASMKISCKASGYSFTGYIMNWVKQSHGKNLEWIGLINPYNGDSIYNQKFKGKATLTVDKSSSTAYMELFSLTSEDSTVYYCAAGEEFAYWGQGTLVTVSA
VL: DIQMTQTSSSLSASLGDRVTISCRASQDISIYLNWFQQKPDGTVKLLIYFTSRLHPGVPSRFSASGSGTDYSLTISHLEHEDIATYFCQQGNTLPRTFGGGTKVELK
notes: Mouse antibody from B cell hybridoma (culture supernatant or IgG purified from it)
- EC50 [15]: 0.0182 µg/mL
- EC50 [16]: 14.6 µg/mL
- % Parent (percent positive cells) [17]: 63.8%
- ELISA values (OD 450 nm) [18]: 0.893 OD
- ELISA values (OD 450 nm) [19]: 2.35 OD
- ELISA values (OD 450 nm) [20]: 0.318 OD

B5: 538-SP5-B10 (antibody produced by the hybridoma) (antibody, V domains shown)
VH: EVQLQQSGPELVKPGASVKMSCKASGYTFTSYVMHWVKQKPGRGLEWIAYILPFNDVTKYNEKFKGKATLTSDKSSNTAYMELSSLTSEDSAVYYCARWEWDDGYFDYWGQGTTLTVSS
VL: DAVMTQTPLSLPVSLGDQASISCRSSQSLENSNGNTYLNWYLQKPGQSPQLLIYRVSNRFSGVLDRFSGSGSGTDFTLKISRVEAEDLGVYFCLQVSHVPFTFGAGTKLELK
notes: as for B4
- EC50 [15]: 0.0358 µg/mL
- EC50 [16]: 21 µg/mL
- % Parent (percent positive cells) [17]: 70.8%
- ELISA values (OD 450 nm) [18]: 0.812 OD
- ELISA values (OD 450 nm) [19]: 2.44 OD
- ELISA values (OD 450 nm) [20]: 0.247 OD

B6: 539-SP1-C8 (antibody produced by the hybridoma) (antibody, V domains shown)
VH: EVQLQQSGPELVKPGSSVKMSCKASGYTFTNYVMHWVKQKPGQGLEWIGYILPYNDGTKYNEKFKGKATLTSDKSSSTAYMEFSVLTSEDSAVYYCARYDYEGSFDYWGQGTALTVSS
VL: DIQMTQTTSSLSASLGDRVTISCRASQDISNYLNWYQQKPDGTVKLLMCYTSRLHSGVPSRFSGSGSGTDFSLTISNLEQEDIATYFCQQGNTFPPTFGGGTKLEIK
notes: as for B4
- EC50 [15]: 0.0299 µg/mL
- EC50 [16]: 9.19 µg/mL
- % Parent (percent positive cells) [17]: 56.5%
- ELISA values (OD 450 nm) [18]: 0.686 OD
- ELISA values (OD 450 nm) [19]: 2.04 OD
- ELISA values (OD 450 nm) [20]: 0.339 OD
